From paper PMC6891087
Blank lines part the entries; values can stand above or below the substance they belong to.

Legend:
[1] = target: nucleosome core particle with histone H3 phosphorylated at Thr3 (human | not stated | Xenopus laevis) (UniProt P04908); assay: SPR; biotinylated NCPs immobilised (~500 RU) on a streptavidin chip, BIAcore T200; analytes 7.8 to 1,000 nM; 8°C; 25 mM Hepes, 250 mM NaCl, 1 mM DTT, 0.05% Tween-20, pH 8; steady-state 1:1 fit
[2] = target: unmodified nucleosome core particle (human | Xenopus laevis) (UniProt P04908); assay: as above
[3] = test system: CPC_LM BOR delta-loop; assay: SPR; conditions: apparent, from normalized response; >=20 in review history; SPR: 25 mM Hepes pH 8, 250 mM NaCl, 1 mM DTT, 0.05% Tween-20, 8 C; EMSA: 10 mM Tris pH 7.5, 100 mM NaCl, 1 mM MgCl2, 1 mM DTT, 1% glycerol, 0.1 mg/ml BSA, 20 nM
[4] = test system: Sumo-Borealin110-206; assay: SPR; conditions: apparent, from normalized response; SPR: 25 mM Hepes pH 8, 250 mM NaCl, 1 mM DTT, 0.05% Tween-20, 8 C; EMSA: 10 mM Tris pH 7.5, 100 mM NaCl, 1 mM MgCl2, 1 mM DTT, 1% glycerol, 0.1 mg/ml BSA, 20 nM
[5] = test system: Sumo-Borealin110-188; assay: SPR; conditions: apparent, from normalized response; SPR: 25 mM Hepes pH 8, 250 mM NaCl, 1 mM DTT, 0.05% Tween-20, 8 C; EMSA: 10 mM Tris pH 7.5, 100 mM NaCl, 1 mM MgCl2, 1 mM DTT, 1% glycerol, 0.1 mg/ml BSA, 20 nM
[6] = test system: Sumo-Borealin189-206; assay: SPR; conditions: apparent, from normalized response; SPR: 25 mM Hepes pH 8, 250 mM NaCl, 1 mM DTT, 0.05% Tween-20, 8 C; EMSA: 10 mM Tris pH 7.5, 100 mM NaCl, 1 mM MgCl2, 1 mM DTT, 1% glycerol, 0.1 mg/ml BSA, 20 nM
[7] = test system: CPC_LM (Borealin-Survivin-INCENP1-58); assay: SPR; conditions: SPR: 25 mM Hepes pH 8, 250 mM NaCl, 1 mM DTT, 0.05% Tween-20, 8 C, EMSA: 10 mM Tris pH 7.5, 100 mM NaCl, 1 mM MgCl2, 1 mM DTT, 1% glycerol, 0.1 mg/ml BSA, 20 nM
[8] = test system: CPC_LM BOR K12/R17/K20E; assay: SPR; conditions: SPR: 25 mM Hepes pH 8, 250 mM NaCl, 1 mM DTT, 0.05% Tween-20, 8 C, EMSA: 10 mM Tris pH 7.5, 100 mM NaCl, 1 mM MgCl2, 1 mM DTT, 1% glycerol, 0.1 mg/ml BSA, 20 nM
[9] = test system: CPC_LM BOR 10-end; assay: SPR; conditions: SPR: 25 mM Hepes pH 8, 250 mM NaCl, 1 mM DTT, 0.05% Tween-20, 8 C; EMSA: 10 mM Tris pH 7.5, 100 mM NaCl, 1 mM MgCl2, 1 mM DTT, 1% glycerol, 0.1 mg/ml BSA, 20 nM
[10] = test system: CPC_LM BOR K198/T199E; assay: SPR; conditions: SPR: 25 mM Hepes pH 8, 250 mM NaCl, 1 mM DTT, 0.05% Tween-20, 8 C; EMSA: 10 mM Tris pH 7.5, 100 mM NaCl, 1 mM MgCl2, 1 mM DTT, 1% glycerol, 0.1 mg/ml BSA, 20 nM
[11] = test system: CPC_LM delta110-188; assay: SPR; conditions: SPR: 25 mM Hepes pH 8, 250 mM NaCl, 1 mM DTT, 0.05% Tween-20, 8 C; EMSA: 10 mM Tris pH 7.5, 100 mM NaCl, 1 mM MgCl2, 1 mM DTT, 1% glycerol, 0.1 mg/ml BSA, 20 nM
[12] = test system: CPC_LM delta189-206; assay: SPR; conditions: SPR: 25 mM Hepes pH 8, 250 mM NaCl, 1 mM DTT, 0.05% Tween-20, 8 C; EMSA: 10 mM Tris pH 7.5, 100 mM NaCl, 1 mM MgCl2, 1 mM DTT, 1% glycerol, 0.1 mg/ml BSA, 20 nM
[13] = histone H3 phospho-T3 (native chemical ligation; C110A, residue 32 C)

Substance: CPC localization module (Borealin-Survivin-INCENP 1-58) (from UniProt Q53HL2 1-280; O15392 1-142; Q9NQS7 1-58) (complex)
Kd [1]: 103 nM
Kd [2]: 295 nM
stoichiometry N (CPC LM dimer per NCP) [2]: 1

Substance: DNA (SPR ligand; presumably 601)
Kd [3]: 20000 nM
Kd [4]: 5000 nM
Kd [5]: 10000 nM
Kd [6]: 20000 nM
Kd ([7]; apparent, from normalized response, >=5 in review history): 5000 nM

Substance: H3T3ph NCP (601)
Kd [8, 13]: 672 nM
Kd [7, 13]: 103 nM

Substance: unmodified NCP (601)
Kd [9]: 860 nM
Kd [10]: 400 nM
Kd [8]: 528 nM
Kd [11]: 1800 nM
Kd [7]: 295 nM
Kd [12]: 260 nM

Other lines, results leading:

Kd [2]: 860 nM
Substance: CPC_LM containing Borealin 10-end (from UniProt Q53HL2 10-280; O15392 1-142; Q9NQS7 1-58) (complex)

Kd [2]: 528 nM
Substance: CPC_LM containing Borealin K12/R17/K20E (from UniProt Q53HL2 1-280; O15392 1-142; Q9NQS7 1-58) (complex)

Kd [2]: 260 nM
Substance: CPC_LM containing Borealin lacking the C-terminal half of the loop (residues 189-206) (from UniProt Q53HL2 1-280; O15392 1-142; Q9NQS7 1-58) (complex)

Kd [2]: 1800 nM
Substance: CPC_LM containing Borealin lacking the N-terminal half of the loop (residues 110-188) (from UniProt Q53HL2 1-280; O15392 1-142; Q9NQS7 1-58) (complex)
